Assay results published in patent publication US20250312387A1, “BACTERIAL THERANOSTIC RADIOIMMUNOTHERAPY” (priority 2024, published 2025).

B1: 2D12.5: monoclonal anti-DOTA(radiometal) antibody / scFv, SEQ ID NO: 1 (protein)
scFv: QVKLQESGPGLVQPSQSLSITCTVSGFSLTDYGVHWVRQSPGKGLEWLGVIWSGGGTAYTAAFISRLNIYKDNSKNQVFFEMNSLQANDTAMYYCARRGSYPYNYFDVWGQGTTVTVSSGGGGSGGGGSGGGGSQAVVTQESALTTSPGETVTLTCRSSTGAVTTSNYANWVQEKPDHLFTGLIGGNNNRPPGVPARFSGSLIGDKAALTIAGTQTEDEAIYFCALWYSNHWVFGGGTRLTVLG
modifications: 2D12.5 scFv

Key:
[1] = system: MC38 tumor cells; format: in vivo, C57BL/6 mice; details: two hours after intravenous 10 nmol DOTA, mice injected intratumorally with Sal-o-DBP
Experimental: To determine the biodistribution of Sal-o-DBP, three groups of six-week old C57BL/6 mice were injected subcutaneously with 1×10^5 MC38 tumor cells. When tumors reached approximately 200 mm^3, the mice were injected intravenously or intratumorally with 1×10^7 CFU of Sal-o-DBP in 50 μL of saline, or intravenously with saline. Sixty hours after bacterial injection, mice were injected intraperitoneally (IP) with 100 mg arabinose in 400 μL saline. Sixty-six hours after bacterial injection mice were injected intravenously with 10 nmol DOTA in 50 μL of PBS. Two hours after DOTA injection, mouse tumors, spleens, livers, and kidneys were collected for biodistribution analysis. The organs were weighed before being homogenized in equal volumes of sterile PBS. Serial dilutions of the organ slurry were prepared (tumor 10^−5, spleen, liver, and kidney 10-2) and 50 μL of the dilutions were plated on LB agar plates containing 100 μg/mL carbenicillin and incubated overnight at 37° C. Colonies were counted and the total CFU/g was determined by the formula (colony count)×(dilution factor)[…].
To determine the biodistribution of DOTA, the organs were analyzed via inductively coupled plasma mass spectrometry (ICP-MS). Fifty μL of Iridium standard was added to each sample. The organ and water mixture was mixed with one mL of 3:1 nitric acid: hydrogen peroxide overnight. […]

[2] = cited from earlier work

Molecule	biodistribution of DOTA in tumor, liver, spleen, and kidney [1]	affinity for DOTA chelates of yttrium and lutetium ([2]; monoclonal anti-DOTA(radiometal) antibody)	Kd ([2]; pure scFv, DOTA-biotin-Y, read-out: binding kinetics of free 2D12.5 to DOTA-biotin-Y) [nM]
O=C(O)CN1CCN(CC(=O)O)CCN(CC(=O)O)CCN(CC(=O)O)CC1 [DOTA, 2,2′,2″,2″′-(1,4,7,10-tetraazacyclododecane-1,4,7,10-tetrayl)tetraacetic acid]	strong levels in the tumor and kidneys with some DOTA remaining in the liver and spleen		
B1		low nanomolar affinity	3.7
